{"source": "paper PMC3115387", "about": "(Proteins, 2011)", "proteins": {"B1": {"name": "Mitomycin-7-O-methyltransferase (MmcR), recombinant N-His6-MmcR (enzyme, Streptomyces lavendulae)", "chain": "MTVEQTPENPGTAARAAAEETVNDILQGAWKARAIHVAVELGVPELLQEGPRTATALAEATGAHEQTLRRLLRLLATVGVFDDLGHDDLFAQNALSAVLLPDPASPVATDARFQAAPWHWRAWEQLTHSVRTGEASFDVANGTSFWQLTHEDPKARELFNRAMGSVSLTEAGQVAAAYDFSGAATAVDIGGGRGSLMAAVLDAFPGLRGTLLERPPVAEEARELLTGRGLADRCEILPGDFFETIPDGADVYLIKHVLHDWDDDDVVRILRRIATAMKPDSRLLVIDNLIDERPAASTLFVDLLLLVLVGGAERSESEFAALLEKSGLRVERSLPCGAGPVRIVEIRRA", "modifications": "selenomethionine (SeMet-labeled protein used for the crystals)"}}, "biological_target": "the molecule itself", "experiment": "native gel or EMSA", "data": [{"protein": "B1", "values": [{"measurement": "stoichiometry N", "value": 2}]}]}
